The target in this test is T1, CZGFP (Aequorea victoria (GFP part); CZ helix …).
T1 construct: Expressed in E. coli BL21(DE3) and purified for the in vitro assays; expressed from a pET11a plasmid in the colony assays; also called EK-CGFP; C-terminal GFP fusion peptide
In words: competition: EK peptide added to refolding NZGFP/CZGFP complex (4 µM), fluorescence at 505 nm; competitor of NZGFP. The protocol:
For inhibition experiments all fluorescence measurements were made in triplicate on a Hitachi F-4500 Fluorescence Spectrophotometer with excitation at 475 nm and emission at 505 nm. A 1.2 mM stock solution of equimolar amounts of NZGFP/CZGFP was allowed to reassemble and fluoresce until there was no change in fluorescence (36 hours). The reassembled complex was denatured in 4 M GdmHCl for 4 hours following which different concentrations of EK peptide, NGFP, or CGFP were added and the NZGFP/CZGFP concentration adjusted to 800 μM. The samples were diluted 200 fold into 2 mM DTT, 10 mM Tris.HCl buffer at pH 7.2 to a 20 mM final concentration of Gdm.HCl and allowed to refold and fluoresce. In order to eliminate artifacts from time dependent inhibition, fluorescence measurements were made after 4 hours and after 16 hours and found to be constant.
To verify that the GRIP assay could be utilized for detecting inhibitors of protein-protein interactions (Zutshi, R., et al., 1998, Curr. Opin. Chem. Biol. 2, 62-66), a LZ peptide corresponding to the LZ present in NZGFP (FIG. 4) was synthesized. The reappearance of fluorescence of the disassembled NZGFP/CZGFP complex in an in vitro assay as a function of added peptide was monitored (FIG. 6). The EK peptide (SEQ ID NO: 1) prevented the assembly of the complex (4 μM) with an IC₅₀ value of 31 μM. […]

T1 sequence (chain, as listed by the source): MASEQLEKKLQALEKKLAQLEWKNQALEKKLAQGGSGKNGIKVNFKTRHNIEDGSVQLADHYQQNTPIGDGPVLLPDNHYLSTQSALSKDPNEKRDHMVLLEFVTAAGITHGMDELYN

B1: EK peptide (peptide)
peptide: ALKKELQANKKELAQLKWELQALKKELAQ
notes: Chemically synthesized and HPLC purified; also called LZ peptide
The term IC50 denotes the midpoint of a concentration-inhibition curve. Low values mean higher potency, high ones lower potency. As to B1, the IC50 is 31 µM.

These data come from patent publication US20040235064A1 (YALE UNIVERSITY, published 2004).
